From patent US20250066499A1 (SUNSHINE GUOJIAN PHARMACEUTICAL SHANGHAI, published 2025)

Key:
Assay in all cases: ELISA; decline multiple of Top against CD73-ND
[1] = target: T1, CD73-ND-P139A (human, UniProt P21589 27-317)
T1 construct: Alanine mutant of CD73-ND
T1 sequence: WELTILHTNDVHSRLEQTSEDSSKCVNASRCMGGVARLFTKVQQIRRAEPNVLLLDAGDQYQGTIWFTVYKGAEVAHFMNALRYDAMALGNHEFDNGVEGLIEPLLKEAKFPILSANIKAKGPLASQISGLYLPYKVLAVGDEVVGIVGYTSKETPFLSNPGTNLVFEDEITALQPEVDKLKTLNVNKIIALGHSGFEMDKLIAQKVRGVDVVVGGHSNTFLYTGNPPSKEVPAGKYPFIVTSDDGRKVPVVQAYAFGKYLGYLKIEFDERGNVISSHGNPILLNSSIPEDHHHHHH
Description: (§1) The ELISA plates were coated with SA protein diluted to 1.5 μg/mL in coating buffer (50 mM carbonate coating buffer, pH 9.6) and incubated overnight at 4° C. The supernatant was discarded, and the plates were washed three times with PBST. Then, 5% skimmed milk powder prepared with PBS was added for blocking and the plates were incubated for 2 h at 37° C. After washing the plates once with PBST, CD73-biotin protein (prepared by biotinylating CD73-His protein according to the EZ-Link NHS-Biotin Reagent instructions) was diluted to 0.5 μg/mL and added at 100 μL/well for incubation at room temperature for 1 h. The plates were washed three times with PBST, and the prepared murine-derived monoclonal antibodies against human CD73 were serially diluted with 1% BSA buffer prepared with PBST and added to the ELISA plates at 100 μl/well. The plates were incubated at 37° C. for 1 h. After washing the plates three times with PBST, HRP-labeled goat anti-mouse IgG secondary antibody was added and the plates were incubated for 30 min at 37° C. After washing the plates three times with PBST, the residual droplets were patted dry on absorbent paper as much as possible. Then, 100 μl of TMB color developing solution was added to each well, and the plates were incubated in the dark at room temperature for 5 min for color development. Subsequently, 50 μl of 2M H₂SO₄ stop solution was added to each well to terminate the substrate reaction. The OD values were read at 450 nm using a multimode microplate reader to analyze the binding ability of the tested antibodies to the target antigen human CD73-His.
(§2) Referring to the experimental method in Example 3, the affinity of 48A11-HuV33 for various mutant proteins of CD73-ND was determined. The SA protein was diluted to 1 μg/mL for coating the ELISA plates, and the biotinylated CD73 protein (CD73-biotin) was used at a concentration of 0.1 μg/mL.

[2] = target: T2, CD73-ND-D142A (human, UniProt P21589 27-317)
T2 construct: Alanine mutant of CD73-ND
T2 sequence: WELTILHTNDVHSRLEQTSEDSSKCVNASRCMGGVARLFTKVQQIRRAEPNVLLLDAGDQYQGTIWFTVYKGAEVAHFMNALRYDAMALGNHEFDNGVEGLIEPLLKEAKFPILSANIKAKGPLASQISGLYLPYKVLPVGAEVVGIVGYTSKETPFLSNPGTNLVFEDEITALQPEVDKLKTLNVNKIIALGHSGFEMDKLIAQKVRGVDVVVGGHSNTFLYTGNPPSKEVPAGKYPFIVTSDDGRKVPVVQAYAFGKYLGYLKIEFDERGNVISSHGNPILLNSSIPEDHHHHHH
Description: as §1, §2

[3] = target: T3, CD73-ND-L184A (human, UniProt P21589 27-317)
T3 construct: Alanine mutant of CD73-ND
T3 sequence: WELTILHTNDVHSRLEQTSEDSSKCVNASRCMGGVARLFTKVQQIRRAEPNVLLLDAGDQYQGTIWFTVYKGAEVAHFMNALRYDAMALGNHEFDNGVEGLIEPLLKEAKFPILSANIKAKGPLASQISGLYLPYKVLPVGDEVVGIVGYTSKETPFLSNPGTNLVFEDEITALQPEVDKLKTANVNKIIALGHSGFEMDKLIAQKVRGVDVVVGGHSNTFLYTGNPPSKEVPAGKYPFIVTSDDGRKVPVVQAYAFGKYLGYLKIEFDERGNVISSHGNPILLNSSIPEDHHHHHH
Description: as §1, §2

[4] = target: T4, CD73-ND-V140A (human, UniProt P21589 27-317)
T4 construct: Alanine mutant of CD73-ND
T4 sequence: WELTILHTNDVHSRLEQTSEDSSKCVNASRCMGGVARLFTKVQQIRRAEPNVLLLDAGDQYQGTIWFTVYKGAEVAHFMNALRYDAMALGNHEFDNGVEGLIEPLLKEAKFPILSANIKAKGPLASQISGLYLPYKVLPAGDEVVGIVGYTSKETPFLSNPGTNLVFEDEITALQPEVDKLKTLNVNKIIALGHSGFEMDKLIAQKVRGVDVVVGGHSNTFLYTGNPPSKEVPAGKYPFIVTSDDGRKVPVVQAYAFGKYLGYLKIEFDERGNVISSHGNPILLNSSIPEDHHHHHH
Description: as §1, §2

[5] = target: T5, CD73-ND-E143A (human, UniProt P21589 27-317)
T5 construct: Alanine mutant of CD73-ND
T5 sequence: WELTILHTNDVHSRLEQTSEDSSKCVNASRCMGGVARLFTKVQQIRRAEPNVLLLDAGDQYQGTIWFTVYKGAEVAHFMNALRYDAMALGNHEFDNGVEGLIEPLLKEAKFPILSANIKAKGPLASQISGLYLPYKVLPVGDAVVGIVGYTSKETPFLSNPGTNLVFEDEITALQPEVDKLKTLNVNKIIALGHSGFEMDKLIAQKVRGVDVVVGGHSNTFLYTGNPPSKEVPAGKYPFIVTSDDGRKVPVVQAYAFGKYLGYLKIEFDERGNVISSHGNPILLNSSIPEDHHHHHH
Description: as §1, §2

[6] = target: T6, CD73-ND-T183A (human, UniProt P21589 27-317)
T6 construct: Alanine mutant of CD73-ND
T6 sequence: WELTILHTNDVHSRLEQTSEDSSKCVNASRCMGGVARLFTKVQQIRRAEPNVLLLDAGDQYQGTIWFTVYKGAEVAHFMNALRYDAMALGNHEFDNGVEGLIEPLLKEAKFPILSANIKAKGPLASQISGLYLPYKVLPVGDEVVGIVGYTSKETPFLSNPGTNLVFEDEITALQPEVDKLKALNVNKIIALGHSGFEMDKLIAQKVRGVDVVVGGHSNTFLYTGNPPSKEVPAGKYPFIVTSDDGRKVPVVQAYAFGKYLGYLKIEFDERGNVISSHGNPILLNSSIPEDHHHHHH
Description: as §1, §2

B1: 48A11-HuV33 (antibody, human IgG4, V domains shown)
VH: QVQLVQSGAEVKKPGASVKVSCKASGYTFTSYWMHWVRQAPGQGLEWIGEINPSIGRTNYNEKFKSRVTLTRDTSTSTAYMELSSLRSEDTAVYYCARRVYGTMDYWGQGTLVTVSS
VL: DIQMTQSPSSLSASVGDRVTITCKASQDINSYLSWFQQKPGKSPKLLIYRANIWVDGVPSRFSGSGSGQDYTFTISSLQPEDIATYYCLQYDELYTFGQGTKVEIK
notes: Humanized
Ratio(Top) [1]: 2.3 fold
Ratio(Top) [2]: 1.1 fold
Ratio(Top) [3]: 1.2 fold
Ratio(Top) [4]: 1 fold
Ratio(Top) [5]: 1.1 fold
Ratio(Top) [6]: 1 fold
